Patent US20240018240A1 (Hoffmann-La Roche, published 2024)

Experiments:
[1] = biological target: T1, Human PLAP (soluble, as injected in SPR) (human, UniProt P05187 23-506); test: SPR single cycle kinetics (Biacore T200, 25°C); TCB captured by anti-PG antibody on CM3 chip, human PLAP as analyte
T1 construct: also called PLAP target
Experimental: (§1) The binding kinetics of the PLAP TCB molecules generated in Example 17 were characterized by the single cycle kinetic (SSK) assay. For this assay, again the SPR Biacore T200 was used. The immobilization was performed at 25° C. with HBS-N pH 7.4 as a running buffer (Cytiva #BR100670). The anti-PG antibody (see Example 3) was immobilized by amine coupling (using amine coupling kit, Cytiva #BR100050) at a density of >5000 RU on a CM3 Chip (Cytiva #29104990). The anti-PG antibody stock solution was diluted to a concentration of 25 μg/mL in a 10 mM sodium acetate buffer of pH 5.0 (Cytiva #BR100351). After the immobilization the analysis was performed at 25° C., and PBS-P+(Cytiva #28995084) was used as a running and a dilution buffer. The 3 nM solutions of TCB molecule samples in PBS-P+ were captured with anti-PG antibody on a CM3 sensor chip.
(§2) The derived kinetic rate constants and corresponding affinity values (equilibrium dissociation constant KD) are summarized in Table 26 for the CD3 binder and in Table 27 for the PLAP binder. The data were analyzed with the Biacore T200 Evaluation and Excel software.

[2] = biological target: T1, Human PLAP (soluble, as injected in SPR); test: SPR RAC assay (Biacore T200, 25°C); TCB captured by anti-PG antibody on CM3 chip, 100 nM human PLAP injected
Experimental: (§3) SPR experiments were performed on a Biacore T200 instrument (GE Healthcare). For the immobilization. HBS-N pH 7.4 was used as a running buffer (Cytiva #BR100670). Anti-PG antibody (see Example 3) was immobilized by amine coupling (using amine coupling kit, Cytiva #BR100050) at a density of >6000 RU on a CM3 Chip (Cytiva #29104990). The anti-PG antibody stock solution was diluted to a concentration of 25 μg/mL in a 10 mM sodium acetate buffer of pH 5.0 (Cytiva #BR100351). After the immobilization the analysis was performed at 25° C., and using PBS-P+ (Cytiva #28995084) as a running and a dilution buffer. The 5 nM solutions of TCB molecule samples in PBS-P+ were captured for 30 sec at a flow rate 5 μl/min. Then a 100 nM solution of human PLAP was injected for 90 sec association time and 30 sec dissociation time at a flow rate of 8 μl/min. Thereafter, a 200 nM solution of human CD3ε/δ (see Example 3, SEQ ID NOs 24 and 25) was injected for 90 sec association time and 30 sec dissociation time at a flow rate of 8 μl/min. The regeneration of the surface followed by two 60 sec regeneration steps with a 10 mM NaOH solution. The data were analyzed with the Biacore T200 Evaluation and Excel software. For the calculation of relative active concentration (RAC) the binding report point (BRP) was used. To calculate the RAC, the target and antibody concentrations were referenced to the unstressed sample (−80° C.) as 100% comparison. For the normalization of the protein concentration, reference was made to anti-PG antibody capturing (RAC values).

[3] = biological target: T2, Human CD3ε stalk-Fc(knob)-Avi/CD3δ stalk-Fc(hole) (human); test: SPR RAC assay (Biacore T200, 25°C); TCB captured by anti-PG antibody on CM3 chip, 200 nM human CD3ε/δ injected after 100 nM human PLAP
T2 construct: Heterodimer of CD3 delta and CD3 epsilon ectodomains fused to a human Fc domain with knob-into-hole modifications and C-terminal Avi-tag; also called human CD3ε/δ; CD3ε/δ
Experimental: as §3

[4] = biological target: T2, Human CD3ε stalk-Fc(knob)-Avi/CD3δ …; test: SPR single cycle kinetics (Biacore T200, 25°C); TCB captured by anti-PG antibody on CM3 chip, human CD3ε/δ as analyte
Experimental: as §1, §2

T1 sequence (P05187 23-506 limits assumed): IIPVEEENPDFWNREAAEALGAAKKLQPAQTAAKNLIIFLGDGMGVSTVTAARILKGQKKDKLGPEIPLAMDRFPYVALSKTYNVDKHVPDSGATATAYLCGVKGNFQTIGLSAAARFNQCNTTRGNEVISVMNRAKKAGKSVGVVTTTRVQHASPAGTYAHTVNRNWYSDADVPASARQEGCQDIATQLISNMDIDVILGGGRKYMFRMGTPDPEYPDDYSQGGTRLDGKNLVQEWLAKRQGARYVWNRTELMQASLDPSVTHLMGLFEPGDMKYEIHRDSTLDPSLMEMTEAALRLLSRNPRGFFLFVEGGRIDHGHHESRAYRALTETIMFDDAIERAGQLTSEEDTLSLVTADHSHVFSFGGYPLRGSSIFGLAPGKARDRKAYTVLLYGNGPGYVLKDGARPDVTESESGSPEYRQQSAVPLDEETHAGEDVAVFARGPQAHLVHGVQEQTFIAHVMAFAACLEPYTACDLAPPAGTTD

Binder | Kd [1] | koff [1] | kon [1] | RAC [%] PLAP binding, stress A [2] | RAC [%] PLAP binding, stress B [2] | RAC [%] PLAP binding, unstressed [2] | RAC [%] CD3 binding, stress A [3] | RAC [%] CD3 binding, stress B [3] | RAC [%] CD3 binding, unstressed [3] | Kd [4] | koff [4] | kon [4]
PLAP H2 CD3orig TCB (bispecific antibody, human IgG1, kappa, L234A L235A) heavy 1: not shown heavy 2: QVQLQESGPGLVKPSETLSLTCTVSGFSLTSYGVSWIRQPAGKGLEWIGVIWEDGSTNYHSALISRVTMSVDTSKNQFSLKLSSVTAADTAVYYCARPHYGSSYVGAMEYWGAGTTVTVSSASTKGPSVFPLAPSSKSTSGGTAALGCLVEDYFPEPVTVSWNSGALTSGVHTFPAVLQSSGLYSLSSVVTVPSSSLGTQTYICNVNHKPSNTKVDEKVEPKSCDKTHTCPPCPAPEAAGGPSVFLFPPKPKDTLMISRTPEVTCVVVDVSHEDPEVKFNWYVDGVEVHNAKTKPREEQYNSTYRVVSVLTVLHQDWLNGKEYKCKVSNKALGAPIEKTISKAKGQPREPQVCTLPPSRDELTKNQVSLSCAVKGFYPSDIAVEWESNGQPENNYKTTPPVLDSDGSFFLVSKLTVDKSRWQQGNVFSCSVMHEALHNHYTQKSLSLSP light 1: DIQMTQSPSSLSASVGDRVTITCRASENIYSYVAWYQQKPGKAPKLLIYNAKSLASGVPSRFSGSGSGTDFTLTISSLQPEDFATYYCQHHYVSPWTFGGGTKLEIKRTVAAPSVFIFPPSDRKLKSGTASVVCLLNNFYPREAKVQWKVDNALQSGNSQESVTEQDSKDSTYSLSSTLTLSKADYEKHKVYACEVTHQGLSSPVTKSFNRGEC light 2: EVQLLESGGGLVQPGGSLRLSCAASGFTFSTYAMNWVRQAPGKGLEWVSRIRSKYNNYATYYADSVKGRFTISRDDSKNTLYLQMNSLRAEDTAVYYCVRHGNFGNSYVSWFAYWGQGTLVTVSSASVAAPSVFIFPPSDEQLKSGTASVVCLLNNFYPREAKVQWKVDNALQSGNSQESVTEQDSKDSTYSLSSTLTLSKADYEKHKVYACEVTHQGLSSPVTKSFNRGEC | 0.0181 nM | 4.45e-05 s⁻¹ | 2.46e+06 M⁻¹ s⁻¹ | 100% | 102% | 100% | 96% | 81% | 100% | 6.3 nM | 0.0017 s⁻¹ | 269000 M⁻¹ s⁻¹
PLAP H3 CD3orig TCB (bispecific antibody, human IgG1, kappa, L234A L235A) heavy 1: not shown heavy 2: QVQLQESGPGLVKPSETLSLTCTVSGFSLTSYGVSWIRQPPGKGLEWIGVIWEDGSTNYNPSLKSRVTISVDTSKNQFSLKLSSVTAADTAVYYCARPHYGSSYVGAMEYWGAGTTVTVSSASTKGPSVFPLAPSSKSTSGGTAALGCLVEDYFPEPVTVSWNSGALTSGVHTFPAVLQSSGLYSLSSVVTVPSSSLGTQTYICNVNHKPSNTKVDEKVEPKSCDKTHTCPPCPAPEAAGGPSVFLFPPKPKDTLMISRTPEVTCVVVDVSHEDPEVKFNWYVDGVEVHNAKTKPREEQYNSTYRVVSVLTVLHQDWLNGKEYKCKVSNKALGAPIEKTISKAKGQPREPQVCTLPPSRDELTKNQVSLSCAVKGFYPSDIAVEWESNGQPENNYKTTPPVLDSDGSFFLVSKLTVDKSRWQQGNVFSCSVMHEALHNHYTQKSLSLSP light 1: DIQMTQSPSSLSASVGDRVTITCRASENIYSYVAWYQQKPGKAPKLLIYNAKSLASGVPSRFSGSGSGTDFTLTISSLQPEDFATYYCQHHYVSPWTFGGGTKLEIKRTVAAPSVFIFPPSDRKLKSGTASVVCLLNNFYPREAKVQWKVDNALQSGNSQESVTEQDSKDSTYSLSSTLTLSKADYEKHKVYACEVTHQGLSSPVTKSFNRGEC light 2: EVQLLESGGGLVQPGGSLRLSCAASGFTFSTYAMNWVRQAPGKGLEWVSRIRSKYNNYATYYADSVKGRFTISRDDSKNTLYLQMNSLRAEDTAVYYCVRHGNFGNSYVSWFAYWGQGTLVTVSSASVAAPSVFIFPPSDEQLKSGTASVVCLLNNFYPREAKVQWKVDNALQSGNSQESVTEQDSKDSTYSLSSTLTLSKADYEKHKVYACEVTHQGLSSPVTKSFNRGEC | 0.009 nM | 3.87e-05 s⁻¹ | 4.32e+06 M⁻¹ s⁻¹ | 99% | 100% | 100% | 97% | 82% | 100% | 6.3 nM | 0.00167 s⁻¹ | 267000 M⁻¹ s⁻¹
PLAP H3 CD3opt TCB (bispecific antibody, human IgG1, kappa, L234A L235A, 2+1 IgG CrossFab, inverted) heavy 1: not shown heavy 2: QVQLQESGPGLVKPSETLSLTCTVSGFSLTSYGVSWIRQPPGKGLEWIGVIWEDGSTNYNPSLKSRVTISVDTSKNQFSLKLSSVTAADTAVYYCARPHYGSSYVGAMEYWGAGTTVTVSSASTKGPSVFPLAPSSKSTSGGTAALGCLVEDYFPEPVTVSWNSGALTSGVHTFPAVLQSSGLYSLSSVVTVPSSSLGTQTYICNVNHKPSNTKVDEKVEPKSCDKTHTCPPCPAPEAAGGPSVFLFPPKPKDTLMISRTPEVTCVVVDVSHEDPEVKFNWYVDGVEVHNAKTKPREEQYNSTYRVVSVLTVLHQDWLNGKEYKCKVSNKALGAPIEKTISKAKGQPREPQVCTLPPSRDELTKNQVSLSCAVKGFYPSDIAVEWESNGQPENNYKTTPPVLDSDGSFFLVSKLTVDKSRWQQGNVFSCSVMHEALHNHYTQKSLSLSP light 1: DIQMTQSPSSLSASVGDRVTITCRASENIYSYVAWYQQKPGKAPKLLIYNAKSLASGVPSRFSGSGSGTDFTLTISSLQPEDFATYYCQHHYVSPWTFGGGTKLEIKRTVAAPSVFIFPPSDRKLKSGTASVVCLLNNFYPREAKVQWKVDNALQSGNSQESVTEQDSKDSTYSLSSTLTLSKADYEKHKVYACEVTHQGLSSPVTKSFNRGEC light 2: EVQLLESGGGLVQPGGSLRLSCAASGFQFSSYAMNWVRQAPGKGLEWVSRIRSKYNNYATYYADSVKGRFTISRDDSKNTLYLQMNSLRAEDTAVYYCVRHTTFPSSYVSYYGYWGQGTLVTVSSASVAAPSVFIFPPSDEQLKSGTASVVCLLNNFYPREAKVQWKVDNALQSGNSQESVTEQDSKDSTYSLSSTLTLSKADYEKHKVYACEVTHQGLSSPVTKSFNRGEC | 0.0097 nM | 3.99e-05 s⁻¹ | 4.12e+06 M⁻¹ s⁻¹ | 100% | 101% | 100% | 98% | 95% | 100% | 2.8 nM | 0.0136 s⁻¹ | 4.79e+06 M⁻¹ s⁻¹
PLAP H4 CD3orig TCB (bispecific antibody, human IgG1, kappa, L234A L235A) heavy 1: not shown heavy 2: QVQLQESGPGLVKPSETLSLTCTVSGGSITSYGVSWIRQPPGKGLEWIGVIWEDGSTNYHSALISRVTISVDTSKNQFSLKLSSVTAADTAVYYCARPHYGSSYVGAMEYWGAGTTVTVSSASTKGPSVFPLAPSSKSTSGGTAALGCLVEDYFPEPVTVSWNSGALTSGVHTFPAVLQSSGLYSLSSVVTVPSSSLGTQTYICNVNHKPSNTKVDEKVEPKSCDKTHTCPPCPAPEAAGGPSVFLFPPKPKDTLMISRTPEVTCVVVDVSHEDPEVKFNWYVDGVEVHNAKTKPREEQYNSTYRVVSVLTVLHQDWLNGKEYKCKVSNKALGAPIEKTISKAKGQPREPQVCTLPPSRDELTKNQVSLSCAVKGFYPSDIAVEWESNGQPENNYKTTPPVLDSDGSFFLVSKLTVDKSRWQQGNVFSCSVMHEALHNHYTQKSLSLSP light 1: DIQMTQSPSSLSASVGDRVTITCRASENIYSYVAWYQQKPGKAPKLLIYNAKSLASGVPSRFSGSGSGTDFTLTISSLQPEDFATYYCQHHYVSPWTFGGGTKLEIKRTVAAPSVFIFPPSDRKLKSGTASVVCLLNNFYPREAKVQWKVDNALQSGNSQESVTEQDSKDSTYSLSSTLTLSKADYEKHKVYACEVTHQGLSSPVTKSFNRGEC light 2: EVQLLESGGGLVQPGGSLRLSCAASGFTFSTYAMNWVRQAPGKGLEWVSRIRSKYNNYATYYADSVKGRFTISRDDSKNTLYLQMNSLRAEDTAVYYCVRHGNFGNSYVSWFAYWGQGTLVTVSSASVAAPSVFIFPPSDEQLKSGTASVVCLLNNFYPREAKVQWKVDNALQSGNSQESVTEQDSKDSTYSLSSTLTLSKADYEKHKVYACEVTHQGLSSPVTKSFNRGEC | 0.0496 nM | 8.91e-05 s⁻¹ | 1.8e+06 M⁻¹ s⁻¹ | 99% | 103% | 100% | 97% | 78% | 100% | 5.7 nM | 0.00167 s⁻¹ | 292000 M⁻¹ s⁻¹
